Earlier results in US20250319161A1, “IMPROVED METHODS OF TREATING DISEASES RESULTING FROM A MALADAPTED STRESS RESPONSE” (priority 2021, published 2025).
Ends that are not written are not given here.

How the values were obtained:
CRFR2 [1] = target: T1, CRFR2 (Homo sapiens, UniProt Q13324); conditions: read-out: inhibitory constant at CRFR2
T1 sequence (Q13324 1-411): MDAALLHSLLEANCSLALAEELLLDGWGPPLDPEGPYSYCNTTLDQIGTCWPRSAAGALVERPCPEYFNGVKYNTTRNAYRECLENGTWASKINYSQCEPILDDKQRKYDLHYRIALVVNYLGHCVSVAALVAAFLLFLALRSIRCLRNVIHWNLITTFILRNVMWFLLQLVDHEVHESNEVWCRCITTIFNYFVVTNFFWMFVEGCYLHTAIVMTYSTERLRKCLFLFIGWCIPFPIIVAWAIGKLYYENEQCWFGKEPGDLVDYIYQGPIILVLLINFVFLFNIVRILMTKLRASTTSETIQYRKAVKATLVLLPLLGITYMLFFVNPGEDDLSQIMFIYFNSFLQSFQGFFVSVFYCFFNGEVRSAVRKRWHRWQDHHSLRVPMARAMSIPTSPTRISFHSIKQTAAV

CRFR2 [2] = target: T1, CRFR2; conditions: in vitro
CRFR2 [3] = target: T1, CRFR2; conditions: in vitro; remark: listed apart in the source

| Substance | Ki (CRFR2 [1]) [nM] | concentration achieving maximal CRFR2 endocytosis (CRFR2 [2]) [nmol] | EC50 (CRFR2 [3]) [nM] |
| --- | --- | --- | --- |
| endogenous urocortin 1, DNPSLSIDLTFHLLRTLLELARTQSQRERAEQNRIIFDSV-NH2 (DNPSLSIDLTFHLLRTLLELARTQSQRERAEQNRIIFDSV-NH2; UniProt P55089 83-122, looked up) [UCN1] | 0.4 | – | – |
| endogenous urocortin 2, IVLSLDVPIG LLQILLEQAR ARAARBQATT NARILARV-NH2 [UCN2] | 1.1 | 100 | 4.3 |
